{"source": "patent US10023615B2", "about": "“Efficient transport into white blood cells” (priority 2008, dated 2018)", "key": {"[1]": {"experiment": "Stability of XG-102 stock solution and diluted formulations", "format": "physicochemical", "excerpt": "a) Materials and Methods • i) Animals • A total of twenty (20) male db/db mice (8 weeks old) were obtained from Charles River (Germany). Upon arrival, animals were group housed (n=6-7/group) and offered regular rodent chow (Altromin standard #1324 chow; C. Petersen, Ringsted, Denmark) and water ad libitum unless otherwise stated. • The mice were housed under a 12:12 L/D cycle (lights on at 4:00 and lights off at 16:00) and in temperature and humidity controlled rooms. • ii) Groups and Randomization • On day −4, mice were randomized according to blood glucose level (fasted; blood glucose measured on Biosen S line analyzer (EKF diagnostic, Germany) to participate in one of the following drug treatment groups (n=6): • 1) Vehicle control, S.C. (physiological saline) • 2) XG-102 (SEQ ID NO: 233); 1 mg/kg; s.c. • 3) XG-102 (SEQ ID NO: 233); 10 mg/kg; s.c • All doses listed were calculated for the free-base. Drug purity: 95.28%, peptide content: 78.0%. All compounds were administered sub-cutaneously (s.c.) in a volume of 3 ml/kg. The formulation instructions for vehicle control and XG-102 (SEQ ID NO: 233) were as follows: • First, XG-102 (SEQ ID NO: 233) was dissolved in the vehicle. The formulations (concentrations of 0.33 and 3.3 mg/ml, corresponding to the doses of 1 and 10 mg/kg, respectively) were prepared according to the procedure detailed below. Concentrations were calculated and expressed taking into account test items purity and peptide content (multiplier coefficient was 1.346). • Preparation of a stock solution: the freeze-dried test compound XG-102 (SEQ ID NO: 233) is thawed for one hour minimum and prepared as a stock solution in the vehicle at 1 mM (corresponding to 3.823 mg/mL). Aliquots are prepared for each treatment day and stored at approximately −80° C. Dilutions of this stock solution to the required concentrations are performed on each treatment day; • Storage of the stock solution: at approximately −80° C.; • Storage of the diluted preparations: at room temperature for 24 hours maximum. • Prior to solubilisation, the powder was stored at −20° C. […]"}, "[2]": {"system": "hAPP Tg mice (APP751 London and Swedish mutations)", "experiment": "Morris Water Maze in hAPP-transgenic mice", "format": "in vivo, mouse", "experimental": "In order to determine the activity of the exemplary all-D retro-inverso IB(s) peptide XG-102 (SEQ ID NO: 233) in Alzheimer's disease, XG-102 (SEQ ID NO: 233) was evaluated in the hAPP-transgenic mice model overexpressing APP751 with London and Swedish mutations using the behavioral Morris Water Maze test as well as immunohistological tests measuring plaque load and ELISA tests measuring β-amyloid1-40 and β-amyloid1-42 levels in the brain of mice.\na) METHODS • i) Introduction • The study was designed to evaluate the efficacy of the test substance (XG-102, SEQ ID NO: 233) on behavioral, biochemical and histological markers using 5 months (±2 weeks) old female hAPP Tg mice. Therefore, mice were treated every two or three weeks up to 4 months and in the end of the treatment period behavior was evaluated in the Morris Water Maze. At sacrifice brain, CSF and blood were collected. Aβ40 and Aβ42 levels were determined in four different brain homogenate fractions as well as in CSF of Tg mice. Plaque load was quantified in the cortex and the hippocampus of 8 Tg animals per treatment group.\nii) Animals • Female Tg mice with a C57BU6xDBA background and an age of 5 months (±2 week) were randomly assigned to treatment groups 1 to 3 (n=12). […]"}}, "note": "Entries after “also recorded” stand apart in the source; their conditions may differ. Ends that are not written are not given here.", "data": [{"substance": "dqsrpvqpflnIttprkprpprrrqrrkkrg (DQSRPVQPFLNLTTPRKPRPPRRRQRRKKRG; not fully specified (some residues); printed as dqsrpvqpflnIttprkprpprrrqrrkkrg) [XG-102]", "values": [{"measurement": "stability of the stock solution", "setting": "[1]; 1 mM in vehicle, approximately −80° C.", "result": 3, "unit": "months"}, {"measurement": "storage of unused diluted material", "setting": "[1]; 4-8° C.", "result": "up to 7 days"}, {"measurement": "stability of the diluted formulations for animal dosing", "setting": "[1]; room temperature", "result": 24, "unit": "h"}, {"measurement": "learning performance between day 1 and day 4", "setting": "[2]; 0.1 mg/kg", "result": "a tendency to have worse learning performance between day 1 and day 4; also recorded: a slightly poorer learning performance between the first and the last training day"}, {"measurement": "spatial learning in the MWM", "setting": "[2]; 0.1 mg/kg every two weeks or 10 mg/kg every three weeks s.c., four months", "result": "remained widely uninfluenced"}]}]}
